Data as given in US20250340655A1, “EPHA2-TARGETING ANTIBODIES AND THEIR APPLICATIONS IN CANCER TREATMENT” (TAIPEI MEDICAL UNIVERSITY, priority 2022, published 2025).
Square brackets hold non-standard residues; d marks the D form. Peptide text beside a SMILES is read from it. * marks the point of attachment. Dolaproine = CO[C@@H]([C@@H]1CCCN1)[C@@H](C)C(=O)O; Dil = CC[C@H](C)[C@H](NC)[C@@H](CC(=O)O)OC; X1 = C[C@@H](N*)[C@@H](O)c1ccccc1; NMeV = CN[C@H](C(=O)O)C(C)C

Columns and labels:
[1] = test system: hTERT HPNE; experiment: Growth inhibitory response to serially diluted MMAE, normal pancreatic cell line; type: cell-based; details: serially diluted MMAE (FIG. 10)
[2] = Int J Mol Sci. 21 (9): 3286 (2020); cited from earlier work
[3] = biological target: T1, EphA2 (Homo sapiens, UniProt P29317); experiment: Western blotting under reducing (SDS-PAGE) and non-reducing (Native-PAGE) conditions; type: binding; details: Native-PAGE vs SDS-PAGE (FIG. 3D)
T1 sequence (P29317 24-976): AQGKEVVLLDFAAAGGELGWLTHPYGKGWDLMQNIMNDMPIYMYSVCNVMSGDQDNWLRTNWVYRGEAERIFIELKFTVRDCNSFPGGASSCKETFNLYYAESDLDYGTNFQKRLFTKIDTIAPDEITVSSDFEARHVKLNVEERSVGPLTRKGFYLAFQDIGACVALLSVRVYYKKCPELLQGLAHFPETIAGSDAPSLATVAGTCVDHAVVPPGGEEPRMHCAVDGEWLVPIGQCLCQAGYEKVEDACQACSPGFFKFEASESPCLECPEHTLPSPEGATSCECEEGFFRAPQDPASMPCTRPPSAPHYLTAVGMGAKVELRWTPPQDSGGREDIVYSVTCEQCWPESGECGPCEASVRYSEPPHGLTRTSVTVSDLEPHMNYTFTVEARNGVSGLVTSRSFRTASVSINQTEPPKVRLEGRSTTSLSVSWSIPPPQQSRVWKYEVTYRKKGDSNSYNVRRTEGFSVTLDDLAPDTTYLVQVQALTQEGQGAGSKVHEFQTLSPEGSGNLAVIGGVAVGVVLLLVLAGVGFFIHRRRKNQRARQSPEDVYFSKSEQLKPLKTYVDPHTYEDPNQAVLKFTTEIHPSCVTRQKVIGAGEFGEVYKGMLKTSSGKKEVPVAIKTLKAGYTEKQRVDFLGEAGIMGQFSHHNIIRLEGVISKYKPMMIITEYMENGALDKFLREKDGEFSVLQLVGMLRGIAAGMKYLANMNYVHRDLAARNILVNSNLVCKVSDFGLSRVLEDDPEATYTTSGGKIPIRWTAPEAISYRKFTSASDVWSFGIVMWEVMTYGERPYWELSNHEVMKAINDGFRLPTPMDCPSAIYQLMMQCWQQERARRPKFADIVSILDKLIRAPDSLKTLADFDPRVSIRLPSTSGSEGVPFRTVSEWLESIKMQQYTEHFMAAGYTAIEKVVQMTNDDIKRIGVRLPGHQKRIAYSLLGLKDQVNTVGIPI
Procedure: The recombinant EphA2 protein was transferred onto nitrocellulose membranes (GE Healthcare Life Sciences) after electrophoresis using sodium dodecyl sulfate-polyacrylamide gel (SDS-PAGE) or nativepolyacrylamide gel (Native-PAGE), and the membranes were incubated with using purified scFv antibodies to determine binding reactivity. The membranes were blocked with 5% skim milk and then incubated with scFv at room temperature for 1 h. After washing with PBST, the membranes were detected and developed using HRP-conjugated goat anti-chicken light chain antibodies. Finally, the 3,3′-diaminobenzidine substrate was added for color development until the desired color intensity was reached.

[4] = biological target: T2, endogenous EphA2 molecules on 4 pancreatic cancer cell lines (AsPc-1, BxPc-3, Panc-1, Mia PaCa-2) (Homo sapiens, UniProt P29317); experiment: Flow cytometry binding on pancreatic cancer cells; details: 4 PAAD cell lines (FIG. 3E)
T2 construct: with endogenous EphA2 molecule expression; endogenous in cells; host or cells: AsPc-1, BxPc-3, Panc-1, Mia PaCa-2
T2 sequence (P29317 24-976): as above
Procedure: Four PAAD cells AsPc-1, BxPc-3, Panc-1, and Mia PaCa-2 with endogenous EphA2 molecule expression, were analyzed through flow cytometry to determine the binding reactivity of indicated scFvs. Freshly prepared cancer cells were harvested and washed twice with PBS. Then, individual scFv was added and incubated at room temperature for 1 h. Bound scFv was visualized using goat anti-chicken light chain antibodies and donkey anti-goat antibodies conjugated with fluorescein isothiocyanate (FITC; Jackson ImmunoResearch Laboratories). An irrelevant scFv was used as the negative control, and commercially available goat anti-EphA2 antibodies were used as the positive control (R&D Systems) in the assay. The results were analyzed using a FACS can flow cytometer (BD Biosciences, Systems and Reagents).

[5] = biological target: T3, natural EphA2 molecule in the lysate of 4 pancreatic cancer cell lines (Homo sapiens, UniProt P29317); experiment: Immunoprecipitation (pull down) from PAAD cell lysates; type: binding; details: lysates of four PAAD cell lines (FIG. 3F)
T3 construct: with endogenous EphA2 molecule expression; endogenous in cells; host or cells: AsPc-1, BxPc-3, Panc-1, Mia PaCa-2
T3 sequence (P29317 24-976): as above
Procedure: For the immunoprecipitation assay, 300 μg of each PAAD cell lysate was incubated with 50 μg of antiEphA2 scFv (scFv was fused with a His tag) at 4° C. overnight. On the next day, 30 μL of Ni^2+-charged sepharose was added to the mixture and incubated for 1 h at 4° C. After three rounds of washing with NiNTA wash buffer (50 mM NaH2PO4, 300 mM NaCl, and 10 mM imidazole, pH 8.0), the scFv-bound sepharose beads were resuspended in 50 μL of PBS buffer. Subsequently, the sepharose solution was denatured at 95° C. for 10 min and analyzed using SDS-PAGE. After the proteins were transferred to a polyvinylidene fluoride membrane, the membrane was detected using the anti-EphA2 antibody (R&D Systems) and anti-His (Proteintech Group) antibody at 4° C. overnight. On the next day, after washing with PBST, the membrane was incubated with HRP-conjugated secondary antibody (Jackson ImmunoResearch Laboratories). Finally, the chemiluminescence substrate was added for luminal signal detection.

[6] = test system: AsPc-1; experiment: MTS cell proliferation assay, AsPc-1; type: cell-based, human; design: dose or concentration left out as unconfirmed; details: AsPc-1, MTS, Day 5, scFv
Procedure: (§1) PAAD cell proliferation was measured using a 3-(4,5-dimethylthiazol-2-yl)-5-(3-carboxymethoxyphenyl)-2-(4-sulfophenyl)-2H-tetrazolium (MTS) Cell Proliferation Assay Kit (Promega). The cells were seeded in a 96-well culture plate at a density of 5000 cells/well for attachment. Then, scFv at various concentrations was added to the cell culture and incubated for 5 days. Finally, MTS and phenazine methosulfate solutions were added and incubated for 90 min for development. After the SDS reagent was added to stop the reaction, the absorbance of each well was measured by determining the OD at 490 nm.

[7] = test system: BxPc-3; experiment: MTS cell proliferation assay, BxPc-3; type: cell-based, human; design: dose or concentration left out as unconfirmed; details: BxPc-3, MTS, Day 5, scFv
Procedure: as §1

[8] = test system: Panc-1; experiment: MTS cell proliferation assay, Panc-1; type: cell-based, human; design: dose or concentration left out as unconfirmed; details: Panc-1, MTS, Day 5, scFv
Procedure: as §1

[9] = test system: Mia PaCa-2; experiment: MTS cell proliferation assay, Mia PaCa-2; type: cell-based, human; design: dose or concentration left out as unconfirmed; details: Mia PaCa-2, MTS, Day 5, scFv
Procedure: as §1

[10] = test system: BxPc-3 and Mia PaCa-2; experiment: Transwell migration assay (FIG. 5A); type: cell-based, human; design: dose or concentration left out as unconfirmed; details: scFv for 2 days
Procedure: (§2) PAAD cells were seeded at 5×10^4 cells/well in a 24-well Transwell cell migration plate (Corning) and incubated with scFv for 2 days. In the assay, recombinant ephrin-A1 (Sino Biological) was added as a positive control. After scFv treatment, the cells were fixed with frozen 100% methanol for 10 min and stained with 0.01% crystal violet for 1 h at room temperature. After the pate was washed with ddH2O, the upper-layer cells were removed using cotton swabs. Cell staining was imaged using a microscope and analyzed using ImageJ. For the scratch wound healing assay, PAAD cells were seeded in a 6-well culture plate. The seeded cells in the well were scratched with a pipette tip to simulate a wound. After treatment with scFv and incubation for 36 or 72 h, the cells were imaged using a microscope. The wound areas were analyzed using ImageJ.

[11] = test system: Panc-1; experiment: Transwell migration assay, Panc-1; type: cell-based, human; details: Panc-1, transwell migration assay (FIG. 5B)
Procedure: as §2

[12] = test system: BxPc-3; experiment: Transwell migration assay, BxPc-3; type: cell-based, human; details: BxPc-3, transwell migration assay (FIG. 5B)
Procedure: as §2

[13] = test system: BxPc-3 and Mia PaCa-2; experiment: Scratch wound healing assay (FIG. 5C); type: cell-based, human; details: after 36 and 72 h of treatment with scFv
Procedure: as §2
(§3) For the scratch wound healing assay, PAAD cells were seeded in a 6-well culture plate. The seeded cells in the well were scratched with a pipette tip to simulate a wound. After treatment with scFv and incubation for 36 or 72 h, the cells were imaged using a microscope. The wound areas were analyzed using ImageJ.

[14] = test system: Mia PaCa-2; experiment: Scratch wound healing assay, Mia PaCa-2; type: cell-based, human; details: Mia PaCa-2, wound healing assay (FIG. 5D)
Procedure: as §2, §3

[15] = test system: BxPc-3; experiment: Scratch wound healing assay, BxPc-3; type: cell-based, human; details: BxPc-3, wound healing assay (FIG. 5D)
Procedure: as §2, §3

[16] = test system: other Eph family proteins (EphA1-A8); experiment: Flow cytometry binding specificity on 293T cells overexpressing EphA molecules: other family proteins; details: cells overexpressing EphA1-A8 (FIG. 6A)
Procedure: (§4) To detect the binding specificity of scFv, 293T cells were transformed with EphA1-A8 plasmids individually for overexpression of different EphA molecules. The cell line was freshly prepared and washed with FACS buffer (2% FBS in PBS). The cells were seeded at 1×10^5 cells/well into a 96-well Ubottom plate and incubated with scFv for 1 h at 4° C. After the plate was washed with FACS buffer, the anti-hemagglutinin (HA) antibody was added for scFv binding detection (scFv was fused with a HA tag) and subsequently developed using an FITC-conjugated secondary antibody. Finally, the cell binding signal was analyzed using a FACS can flow cytometer.

[17] = test system: BxPc-3 and Mia PaCa-2 cells; experiment: Molecule signaling by Western blotting; type: cell-based, human
Procedure: […] The cells were collected and lysed using lysis buffer [50 mM Tris-HCl (pH 7.5), 50 mM NaCl, 5 mM ethylenediaminetetraacetic acid, and 1% Triton X-100], and a mixture of proteinase inhibitors (Roche Applied Science) was added. The protein concentration of the cell lysate was measured through the Coomassie Plus (Bradford) Protein Assay (Thermo Fisher Scientific). Samples were run on reducing SDS-PAGE for Western blotting analysis and were detected using antibodies against p-EphA2, EphA2, p-AKT, AKT, p-ERK, ERK, p-FAK, FAK, pSTAT3, STAT3 (Cell Signaling Technology), and β-actin (GeneTex).

[18] = test system: HuCCT1, ssp-25, RBE, TFK; experiment: MTS growth inhibition, cholagiocarcinoma cells; type: cell-based; design: dose or concentration left out as unconfirmed; details: four cell lines HuCCT1, ssp-25, RBE, Day 5
Procedure: The growth inhibitory effect of hSD5 scFv on the four strains of cholagiocarcinoma cells was tested under different concentrations. At indicated concentrations, hSD5 scFv interacted with the cancer cells for 5 days, and the effects on the growth of cancer cells were observed by MTS assay. (FIG. 17C)

[19] = biological target: T1, EphA2; experiment: Flow cytometry binding specificity on 293T cells overexpressing EphA molecules: EphA2; design: expressed in transfected cells; host or cells: 293T; details: flow cytometry (FIG. 6A)
Procedure: as §4

Molecule: CC[C@H](C)[C@@H]([C@@H](CC(=O)N1CCC[C@H]1[C@H](OC)[C@@H](C)C(=O)N[C@H](C)[C@@H](O)c1ccccc1)OC)N(C)C(=O)[C@@H](NC(=O)[C@@H](NC)C(C)C)C(C)C [MMAE, Monomethyl auristatin E] (H-[NMeV]V[Dil][Dolaproine]-X1)
- growth inhibition of normal pancreatic cell line [1]: only mild effect
- potency relative to doxorubicin [2]: 100-1000 times

B1: scFv SD5: chicken derived anti-EphA2 scFv, SEQ ID NO: 11 (light chain SEQ ID NO: 7, heavy chain SEQ ID NO: 9) (protein)
scFv: LTQPSSVSANLGETVKIPCSGSSGSYGWYQQKSPGSAPVTLIYDNDKRPSDIPSRFFGSTSGSTSTLTITGVQAEDEAVYFCGSADSSTYVGMFGAGTTLTVLGQSSRSSTVTLDESGGGLQTPGGGLSLVCKASGFTFSDYGMGWVRQAPGKGLEFVAGISAAGSFTPYGAAVKGRATISRDNGQSTVRLQLNNLRSEDTGIYYCARIPSGYRAGEIYTWGQGTEVIVSS
- recognition of EphA2 protein in native and denatured form [3]: can recognize EphA2 in the native form, but not in the denatured form
- binding response to EphA2 molecules on cancer cells [4]: significant binding response
- pull down of EphA2 from cell lysates [5]: captured free EphA2 molecules
- growth inhibition [6]: approximately 80%
- growth inhibition [7]: 58.5%
- growth inhibition [8]: approximately 80%
- growth inhibition [9]: approximately 80%
- number of migrated cancer cells [10]: reduced effectively
- migration inhibition [11]: 65%
- migration inhibition [12]: 91%
- migration of cancer cells in wound healing assay [13]: inhibited the migration of cancer cells
- migration inhibitory effect [14]: 65%
- migration inhibitory effect [15]: 67%

B2: scFv hSD5: humanized anti-EphA2 scFv, SEQ ID NO: 12 (light chain SEQ ID NO: 8, heavy chain SEQ ID NO: 10) (protein)
scFv: LTQPPSVSVSPGQTVRITCSGSSGSYGWYQQKSPGQAPVTLIYDNDKRPSGIPERFSGSSSGSTSTLTISGVQAEDEADYYCGSADSSTYVGMFGGGTKLTVLGQSSRSSQVQLVESGGGLVQPGGSLRLSCAASGFTFSDYGMGWVRQAPGKGLEWVAGISAAGSFTPYGAAVKGRFTISRDNSKNTVYLQMNSLRAEDTAVYYCARIPSGYRAGEIYTWGQGTLVTVSS
- cross-binding to other Eph family proteins [16]: does not exhibit cross-binding reactions
- LAMP1 and LAMP2 levels ([17]; 6 h after administration of scFv (FIG. 6C)): upregulated levels
- EphA2 degradation ([17]; 6 h after administration of scFv, dose-dependent (FIG. 6C)): degraded EphA2 molecules
- EphA2 level ([17]; 24 hours treatment (FIG. 6D)): almost completely degraded
- amount of pEphA2 ([17]; 24 hours treatment (FIG. 6D)): decreased
- pSTAT3 and pFAK signals ([17]; 24 hours treatment (FIG. 6D)): dose-dependent decrease
- growth inhibition [18]: 40%-70%
- binding to cells overexpressing EphA2 [19]: specifically binds to EphA2 molecules
